{"source": "patent US4287185A", "about": "“Method for the detection of viruses” (Suntory Ltd., priority 1978, dated 1981)", "origin": "cited, not measured here", "molecules": {"B1": {"name": "neocarzinostatin (protein, UniProt P0A3R9 35-147, looked up)", "Neocarzinostatin": "AAPTATVTPSSGLSDGTVVKVAGAGLQAGTAYDVGQCAWVDTGVLACNPADFSSVTADANGSASTSLTVRRSFEGFLFDGTRWGTVDCTTAACQVGLSDAAGNGPEGVAISFN", "notes": "carcinostatic agent having 109 constituent amino acids, already put into clinical practice"}}, "conditions": "mouse, in vivo"}
{"molecule": "B1", "values": [{"measurement": "LD50 compared with that of SP (about 3.5 mg/Kg)", "result": "almost the same"}]}
